Reference: patent US9416353B2, “Covalent tethering of functional groups to proteins and substrates therefor” (Promega Corporation, priority 2004, dated 2016)

What was measured:
[1] = pH-indicator dye assay of hydrolysis of Cl-alkanes by DhaA (WT or mutant); format: biochemical; details: 0.1 mg/ml of enzyme, 10 mM substrate, pH 7.0-8.2
Text: To study the effect of a point mutation on the activity of DhaA (WT or mutant) hydrolysis of Cl-alkanes, a pH-indicator dye system as described by Holloway et al. (1998) was employed.

[2] = Thermostability analysis of purified DhaA mutants (residual labeling activity, FP); format: physicochemical; details: for thermostability (residual activity): 60 minute incubations at various temperature
Experimental: The thermostability profiles of the DhaA mutants were determined by measuring the residual activity of the purified proteins following 15, 30 or 60 minute incubations at 4, 22, 30, 37, 42, 50 or 60° C. The FP assay was performed at room temperature (about 25° C.). […] For each clone, the labeling rate (slope of the linear range) was calculated for each condition. The rate observed following a 15 minute incubation at 4° C. was arbitrarily assigned as 100% activity. The residual activity (%) was calculated for each condition. To determine stability, for each incubation time, the % of residual activity was plotted against the incubation temperatures. To calculate half-life, for each incubation temperature, the % of residual activity was plotted against the incubation time. The time where 50% activity was lost was extrapolated from the graph.

[3] = Precipitation of DhaA.WT and mutants with (NH4)2SO4; format: physicochemical; details: 2 hours, 4° C.
Experimental: Aliquots of the supernatant obtained from E. coli expressing DhaA (WT or one of the mutants) were treated with increasing concentrations of (NH4)2SO4. The proteins were exposed to each (NH4)2SO4 concentration for 2 hours (4° C.), pelleted by centrifugation, dialyzed overnight against buffer A, and resolved on SDS-PAGE.

[4] = DhaA capture using immobilized biotin chloroalkane substrates (streptavidin plates, ELISA-type); format: binding; details: for reaction with immobilized biotin-PEG4-14-Cl: titration
Experimental: Using an excess of substrate (about 2 μmol), the plates could bind approximately 75 μmol of biotin per well. […] Reactions between immobilized substrate and mutant DhaAs were performed using purified GST-DhaA-Flag fusions. Various concentrations of protein (100 μL; diluted in PBSTB) were incubated with immobilized substrate for various times at 25° C., and the reactions were stopped by emptying the plates and washing 4× with PBST. To detect bound DhaA, 100 μL anti-GST-HRP (Amersham) was added to each well at a 1:10,000 dilution (in PBSTB) and the plates incubated for 1 hour at 25° C.

[5] = format: binding; details: biotin-PEG4-14-Cl substrate
[6] = In vivo labeling of DhaA mutants expressed in CHO-K1 cells (cell-to-gel analysis); format: cell-based; details: 5 μM substrate
Experimental: (§1) Proteins (2-10 μl/lane) were resolved on SDS-PAGE (4-20% gradient gels).

[7] = MagneGST assay
Experimental: Bacterial colonies were picked into 96-well plates containing LB+Amp and incubated with shaking at 30° C. The cultures were diluted 1:20 into 96 well plates containing fresh TB medium, Amp and 0.1 mM IPTG. The plates were incubated at 30° C. with shaking overnight. The 96 well plates containing the IPTG induced cultures were centrifuged and supernatants removed. DhaA mutants were normalized for protein concentration by saturating protein capture on MagneGST™ PMPs. […] The plates were shaken at about 900 rpm for 10 minutes at room temperature. The particles were washed three times with PBST using a MagnaBot® 96 magnetic separation device. The wash solution was removed and MagneGST™ elution solution was added and the plates were allowed to shake at room temperature (about 900 rpm for 5 minutes). Supernatants were transferred to a new, flat bottom, transparent 96 well plate and the fluorescence intensity was measured using an excitation wavelength at 550 nm and an emission wavelength at 580 nm.
Four colonies at random of each identified hit were inoculated into 200 μL LB+Amp and grown overnight at 30° C. in flat bottom 96 well plates. Overnight cultures were diluted 1:50 into 200 μL TB ampicillin supplemented with 0.1 mM IPTG and grown overnight at 30° C. and 37° C. Induced cultures were re-assayed using the MagneGST™ based screen.

[8] = In vivo stability of DhaA mutants in transiently transfected CHO-K1 cells; format: cell-based; details: 12, 24 and 48 hours post-transfection
Experimental: as §1

[9] = Hydrolysis of FAP by GST-BlaZ (WT or mutants); format: biochemical; details: up to 60 minutes of co-incubation
Experimental: The chromogenic substrate 6-β-[(Furylacryloyl)amido]penicillanic acid triethylamine salt (FAP) was purchased from Calbiochem (La Jolla, Calif.). […] All assays were performed at 25° C. in 0.1 M potassium phosphate buffer at pH 6.8.

Molecule | thermostability (residual activity) [2] | (NH4)2SO4 concentration that precipitates the protein [3] [%] | signal relative to the parental clones [5] | other results
DhaA.WT: wild-type Rhodococcus rhodochrous dehalogenase (DhaA), generally GST at the N-terminus and FLAG at the C-terminus (protein, UniProt P0A3G2 1-293, looked up, N-terminal GST, C-terminal FLAG tag) Haloalkane dehalogenase: MSEIGTGFPFDPHYVEVLGERMHYVDVGPRDGTPVLFLHGNPTSSYLWRNIIPHVAPSHRCIAPDLIGMGKSDKPDLDYFFDDHVRYLDAFIEALGLEEVVLVIHDWGSALGFHWAKRNPERVKGIACMEFIRPIPTWDEWPEFARETFQAFRTADVGRELIIDQNAFIEGALPKCVVRPLTEVEMDHYREPFLKPVDREPLWRFPNELPIAGEPANIVALVEAYMNWLHQSPVPKLLFWGTPGVLIPPAEAARLAESLPNCKTVDIGPGLHYLQEDNPDLIGSEIARWLPAL |  |  |  | activity with 1-Cl-butane [1]: 5 units/mg of protein
DhaA.H272F: DhaA mutant, catalytic His272 replaced with Phe (protein, UniProt P0A3G2 1-293, looked up, variant H272F) Haloalkane dehalogenase: MSEIGTGFPFDPHYVEVLGERMHYVDVGPRDGTPVLFLHGNPTSSYLWRNIIPHVAPSHRCIAPDLIGMGKSDKPDLDYFFDDHVRYLDAFIEALGLEEVVLVIHDWGSALGFHWAKRNPERVKGIACMEFIRPIPTWDEWPEFARETFQAFRTADVGRELIIDQNAFIEGALPKCVVRPLTEVEMDHYREPFLKPVDREPLWRFPNELPIAGEPANIVALVEAYMNWLHQSPVPKLLFWGTPGVLIPPAEAARLAESLPNCKTVDIGPGLFYLQEDNPDLIGSEIARWLPAL | stable up to temperatures of 40 °C |  |  | 
DhaA.H272A: DhaA mutant, His272 replaced with Ala (protein, UniProt P0A3G2 1-293, looked up, variant H272A) Haloalkane dehalogenase: MSEIGTGFPFDPHYVEVLGERMHYVDVGPRDGTPVLFLHGNPTSSYLWRNIIPHVAPSHRCIAPDLIGMGKSDKPDLDYFFDDHVRYLDAFIEALGLEEVVLVIHDWGSALGFHWAKRNPERVKGIACMEFIRPIPTWDEWPEFARETFQAFRTADVGRELIIDQNAFIEGALPKCVVRPLTEVEMDHYREPFLKPVDREPLWRFPNELPIAGEPANIVALVEAYMNWLHQSPVPKLLFWGTPGVLIPPAEAARLAESLPNCKTVDIGPGLAYLQEDNPDLIGSEIARWLPAL |  | 10 |  | 
DhaA.H272F YM: DhaA.H272F based mutant with Y273M (protein, UniProt P0A3G2 1-293, looked up, variant H272F Y273M) Haloalkane dehalogenase: MSEIGTGFPFDPHYVEVLGERMHYVDVGPRDGTPVLFLHGNPTSSYLWRNIIPHVAPSHRCIAPDLIGMGKSDKPDLDYFFDDHVRYLDAFIEALGLEEVVLVIHDWGSALGFHWAKRNPERVKGIACMEFIRPIPTWDEWPEFARETFQAFRTADVGRELIIDQNAFIEGALPKCVVRPLTEVEMDHYREPFLKPVDREPLWRFPNELPIAGEPANIVALVEAYMNWLHQSPVPKLLFWGTPGVLIPPAEAARLAESLPNCKTVDIGPGLFMLQEDNPDLIGSEIARWLPAL | relatively unstable at temperatures above 30 °C |  | significantly improved | reaction with immobilized biotin-PEG4-14-Cl [4]: react most efficiently
DhaA.H272F YL: DhaA.H272F based mutant with Y273L (protein, UniProt P0A3G2 1-293, looked up, variant H272F Y273L) Haloalkane dehalogenase: MSEIGTGFPFDPHYVEVLGERMHYVDVGPRDGTPVLFLHGNPTSSYLWRNIIPHVAPSHRCIAPDLIGMGKSDKPDLDYFFDDHVRYLDAFIEALGLEEVVLVIHDWGSALGFHWAKRNPERVKGIACMEFIRPIPTWDEWPEFARETFQAFRTADVGRELIIDQNAFIEGALPKCVVRPLTEVEMDHYREPFLKPVDREPLWRFPNELPIAGEPANIVALVEAYMNWLHQSPVPKLLFWGTPGVLIPPAEAARLAESLPNCKTVDIGPGLFLLQEDNPDLIGSEIARWLPAL | relatively unstable at temperatures above 30 °C |  | significantly improved | reaction with immobilized biotin-PEG4-14-Cl [4]: react most efficiently
DhaA.H272F H11: first generation DhaA.H272F mutant with K175M and C176G (protein, UniProt P0A3G2 1-293, looked up, variant K175M C176G H272F) Haloalkane dehalogenase: MSEIGTGFPFDPHYVEVLGERMHYVDVGPRDGTPVLFLHGNPTSSYLWRNIIPHVAPSHRCIAPDLIGMGKSDKPDLDYFFDDHVRYLDAFIEALGLEEVVLVIHDWGSALGFHWAKRNPERVKGIACMEFIRPIPTWDEWPEFARETFQAFRTADVGRELIIDQNAFIEGALPMGVVRPLTEVEMDHYREPFLKPVDREPLWRFPNELPIAGEPANIVALVEAYMNWLHQSPVPKLLFWGTPGVLIPPAEAARLAESLPNCKTVDIGPGLFYLQEDNPDLIGSEIARWLPAL | retained significant labeling activity following incubation as high as 50 °C |  |  | reaction with immobilized biotin substrates ([4]; all biotin substrates tested): reacted poorly; in vivo labeling performance compared to parent DhaA.H272F [6]: superior performance characteristics; signal relative to the respective parents [7]: considerably higher signal; production of active protein (fluorescent signal after labeling) [8]: more active protein after 48 hours; half-life ([2]; at 50° C.): 58 min
DhaA.H272F YC: DhaA.H272F based mutant with Y273C (protein, UniProt P0A3G2 1-293, looked up, variant H272F Y273C) Haloalkane dehalogenase: MSEIGTGFPFDPHYVEVLGERMHYVDVGPRDGTPVLFLHGNPTSSYLWRNIIPHVAPSHRCIAPDLIGMGKSDKPDLDYFFDDHVRYLDAFIEALGLEEVVLVIHDWGSALGFHWAKRNPERVKGIACMEFIRPIPTWDEWPEFARETFQAFRTADVGRELIIDQNAFIEGALPKCVVRPLTEVEMDHYREPFLKPVDREPLWRFPNELPIAGEPANIVALVEAYMNWLHQSPVPKLLFWGTPGVLIPPAEAARLAESLPNCKTVDIGPGLFCLQEDNPDLIGSEIARWLPAL | relatively unstable at temperatures above 30 °C |  | significantly improved | 
DhaA.H272Q: DhaA mutant, His272 replaced with Gln (protein, UniProt P0A3G2 1-293, looked up, variant H272Q) Haloalkane dehalogenase: MSEIGTGFPFDPHYVEVLGERMHYVDVGPRDGTPVLFLHGNPTSSYLWRNIIPHVAPSHRCIAPDLIGMGKSDKPDLDYFFDDHVRYLDAFIEALGLEEVVLVIHDWGSALGFHWAKRNPERVKGIACMEFIRPIPTWDEWPEFARETFQAFRTADVGRELIIDQNAFIEGALPKCVVRPLTEVEMDHYREPFLKPVDREPLWRFPNELPIAGEPANIVALVEAYMNWLHQSPVPKLLFWGTPGVLIPPAEAARLAESLPNCKTVDIGPGLQYLQEDNPDLIGSEIARWLPAL |  | 10 |  | 
DhaA.H272G: DhaA mutant, His272 replaced with Gly (protein, UniProt P0A3G2 1-293, looked up, variant H272G) Haloalkane dehalogenase: MSEIGTGFPFDPHYVEVLGERMHYVDVGPRDGTPVLFLHGNPTSSYLWRNIIPHVAPSHRCIAPDLIGMGKSDKPDLDYFFDDHVRYLDAFIEALGLEEVVLVIHDWGSALGFHWAKRNPERVKGIACMEFIRPIPTWDEWPEFARETFQAFRTADVGRELIIDQNAFIEGALPKCVVRPLTEVEMDHYREPFLKPVDREPLWRFPNELPIAGEPANIVALVEAYMNWLHQSPVPKLLFWGTPGVLIPPAEAARLAESLPNCKTVDIGPGLGYLQEDNPDLIGSEIARWLPAL |  | 10 |  | 
BlaZ.N170Q (protein, UniProt P00807 25-281, looked up, variant N170Q) Beta-lactamase: KELNDLEKKYNAHIGVYALDTKSGKEVKFNSDKRFAYASTSKAINSAILLEQVPYNKLNKKVHINKDDIVAYSPILEKYVGKDITLKALIEASMTYSDNTANNKIIKEIGGIKKVKQRLKELGDKVTNPVRYEIELNYYSPKSKKDTSTPAAFGKTLNKLIANGKLSKEQKKFLLDLMLNNKSGDTLIKDGVPKDYKVADKSGQAITYASRNDVAFVYPKGQSEPIVLVIFTNKDNKSDKPNDKLISETAKSVMKEF |  |  |  | hydrolysis of FAP [9]: could not be detected
